Assay results: patent publication US20240417462A1 (SHANGHAI CELGEN BIO PHARMACEUTICAL, published 2024)
Where a chain is given by its changes, count along the chain named. Values joined by “and” are separate entries in the source; they are usually repeats but may differ in a detail not shown here. Identical values can stand only once. Like-named read-outs stand apart in the source and are kept apart here.

How the values were obtained:
[1] = target: T1, recombinant human TIGIT (Human TIGIT His, Sino Biological, 10917-H08H) (human, UniProt Q495A1 22-138); experiment: ELISA, recombinant human TIGIT (His) coated, anti-human-Fc-AP, OD405/490
T1 construct: range 1-138; bought; also called hTIGIT
T1 sequence (looked up): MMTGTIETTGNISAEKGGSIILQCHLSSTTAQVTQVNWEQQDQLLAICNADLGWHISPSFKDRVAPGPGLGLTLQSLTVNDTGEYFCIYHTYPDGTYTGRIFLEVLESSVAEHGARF
Procedure: (§1) Antigen hTIGIT (Human TIGIT (His), Sino Biological, 10917-H08H) was diluted into 1 μg/mL with a NaHCO₃ solution of pH 9.6, 50 μl per well was added to a 96-well ELISA plate, and placed overnight in refrigerator at 4° C.
(§2) In order to determine whether the humanized TIGIT monoclonal antibody of the present disclosure could bind to the recombinant human TIGIT protein, in vitro testing was performed. Murine antibodies and Tiragolumab (Tira) were used as positive controls. The experimental method was the same as in Example 3.1.

[2] = target: T1, recombinant human TIGIT (Human TIGIT …); experiment: as above; remark: listed apart in the source
Procedure: as §1, §2

[3] = target: T1, recombinant human TIGIT (Human TIGIT …); experiment: competition ELISA, coated TIGIT-His, CD155-mFC as competitor
Procedure: Antigen TIGIT (Human TIGIT (His), Sino Biological, 10917-H08H) was diluted with pH 9.6 of NaHCO₃ solution into 1 μg/mL, 50 μL per well was added to a 96-well ELISA plate, and placed overnight at 4° C. in a refrigerator. The next day, after washing with PBS twice, plate was blocked with 3% BSA (100 μL per well) by incubating at 37° C. for 1.5 h, and washed 4 times with PBST.

[4] = target: T2, full-length human TIGIT expressed on CHO-K cell membrane (CHO-K-TIGIT) (human, UniProt Q495A1 22-244); experiment: flow cytometry, CHO-TIGIT cells
T2 construct: whole, on cells; also called CHO-TIGIT; membrane TIGIT
T2 sequence (looked up): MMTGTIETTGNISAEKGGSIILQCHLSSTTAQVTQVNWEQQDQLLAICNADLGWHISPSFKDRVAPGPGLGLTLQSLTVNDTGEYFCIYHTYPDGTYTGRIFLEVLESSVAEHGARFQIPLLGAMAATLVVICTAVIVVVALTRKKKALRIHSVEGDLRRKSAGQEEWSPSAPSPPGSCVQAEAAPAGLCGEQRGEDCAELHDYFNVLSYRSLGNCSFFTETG

[5] = target: T1, recombinant human TIGIT (Human TIGIT …); experiment: competition ELISA, human TIGIT (His) coated, antibody titrated against fixed CD155, bound CD155 detected, OD450/655
[6] = target: T1, recombinant human TIGIT (Human TIGIT …); experiment: BLI, antibody captured on anti-human Fc probe, TIGIT-His in solution
[7] = target: T1, recombinant human TIGIT (Human TIGIT …); experiment: as above; remark: listed apart in the source
Procedure: The dissociation constant (Kd) of the human mouse chimeric TIGIT monoclonal antibody was detected by using a GATORS (ProbeLife) detection instrument and an HFC (LOT #2007065 Tray 2), Human antibody Capture probe. The human mouse chimeric TIGIT monoclonal antibody was diluted to 30 nM in a binding buffer (Q buffer [PBS (10 mM PH7.4)+0.02% Tween 20+0.2% BSA]). The recombinant human TIGIT protein was diluted in Q buffer in a 2-fold gradient to different concentrations varying in the range of 40 nM to 10 nM. A kinetic correlation determination was initiated by placing an antibody capture sensor in the continuously diluted antigen solution described above. Octet Data Acquisition software was opened and New Kinetics Experiment-Basic Kinetics mode was selected.

[8] = target: T1, recombinant human TIGIT (Human TIGIT …); experiment: competition ELISA on recombinant human TIGIT, CD155 as competitor
[9] = target: T1, recombinant human TIGIT (Human TIGIT …); experiment: BLI, antibody captured on anti-human Fc probe, TIGIT-His in solution; remark: listed apart in the source
[10] = target: T1, recombinant human TIGIT (Human TIGIT …); experiment: ELISA, coated human TIGIT-His

B1: Tiragolumab (antibody, V domains shown)
VH: EVQLQQSGPGLVKPSQTLSLTCAISGDSVSSNSAAWNWIRQSPSRGLEWLGKTYYRFKWYSDYAVSVKGRITINPDTSKNQFSLQLNSVTPEDTAVFYCTRESTTYDLLAGPFDYWGQGTLVTVSS
VL: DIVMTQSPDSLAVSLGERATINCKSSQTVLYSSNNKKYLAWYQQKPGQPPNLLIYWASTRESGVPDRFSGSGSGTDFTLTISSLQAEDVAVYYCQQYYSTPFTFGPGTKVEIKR
B1 gave an EC50 [1] of 0.0806 µg/mL, an EC50 [2] of 0.0242 µg/mL and an IC50 [3] of 5.24 nM. For the same binder, the EC50 [4] was 1.36 nM and 3.84 nM and 1.72 nM and the IC50 [5] was 0.116 µg/mL.

B2: anti-human TIGIT human mouse chimeric monoclonal antibody 7103-07 (hFc) (antibody, V domains shown)
VH: EVQVVESGGGLVKPGGTLKLSCAASGFTFSTYAMSWVRQSPEQRLEWVAEISSGGSHTFYSDTVTGRFTISRDNAQNTLYLEMNSLRSEDTAMYYCARKTLDYYALDYWGQGTSVTVSS
VL: DVQITQSPSYLAASPGETITINCRASKSISKYLAWYQEKPGKTNKLLIYSGSRLQSGIPSKFSGSGYGTDFTLTISSLEPEDFAMYYCQQHNEYPWTFGGGTKVEIK
notes: also called 7303-07 (hFc); human mouse chimeric antibody
Work on B2 yielded a Kd [6] of 2.96 nM, a koff [6] of 0.00169 s⁻¹ and a kon [6] of 573000 M⁻¹ s⁻¹. For the same binder, the EC50 [2] was 0.0095 µg/mL, the IC50 [3] was 1.7 nM and the EC50 [4] was 1.35 nM and 0.927 nM. For the same binder, the Kd [7] was 1.72 nM, the koff [7] was 0.00167 s⁻¹ and the kon [7] was 971000 M⁻¹ s⁻¹. It also gave an IC50 [5] of 0.041 µg/mL.

B3: humanized anti-human TIGIT monoclonal antibody P04662 (antibody, V domains shown)
VH: B2 VH with T17S, K19R, S40A, Q76K, E82Q, S88A, M93V, S114T
VL: DVQITQSPSSVSASVGDRVTINCRASKSISKYLAWYQQKPGKAPKLLIYSGSRLQSGVPSRFSGSGSGTDFTLTISSLQPEDFATYYCQQHNEYPWTFGGGTKLEIK
In the case of B3, the Kd [6] is reported as 2.4 nM, the koff [6] is reported as 0.0031 s⁻¹ and the kon [6] is reported as 1.29e+06 M⁻¹ s⁻¹. The EC50 [2] was 0.0063 µg/mL and 0.0419 nM, the IC50 [8] was 0.63 nM and the IC50 [5] was 0.094 µg/mL.

B4: humanized anti-human TIGIT monoclonal antibody P04663 (antibody, V domains shown)
VH: B2 VH with T17S, K19R, S40A, S61A, T65K, Q76K, E82Q, S88A, M93V, S114T
VL: B3 VL
For B4, the Kd [6] was 2 nM, the koff [6] was 0.00307 s⁻¹ and the kon [6] was 1.53e+06 M⁻¹ s⁻¹. The EC50 [2] was 0.0049 µg/mL and 0.033 nM, the IC50 [8] was 0.594 nM and the IC50 [5] was 0.089 µg/mL.

B5: humanized anti-human TIGIT monoclonal antibody P04666 (antibody, V domains shown)
VH: B2 VH with T17S, K19R, S40A, S61A, T65K, Q76K, E82Q, S88A, M93V, S114T
VL: B3 VL with D17E, R18T, V19I
B5 showed a Kd [6] of 2.19 nM, a koff [6] of 0.00347 s⁻¹ and a kon [6] of 1.59e+06 M⁻¹ s⁻¹. For the same binder, the EC50 [2] was 0.0137 µg/mL and 0.0915 nM, the IC50 [8] was 0.127 nM and the IC50 [5] was 0.019 µg/mL.

B6: humanized anti-human TIGIT monoclonal antibody P04667 (antibody, V domains shown)
VH: B2 VH with T17S, K19R, S40A, S61A, T65K, Q76K, E82Q, S88A, M93V, S114T
VL: B3 VL with V2I, I4M, D17E, R18T, V19I, N22T
With B6 the Kd [6] was 4.2 nM, the koff [6] was 0.00565 s⁻¹ and the kon [6] was 1.35e+06 M⁻¹ s⁻¹. The EC50 [2] was 0.0125 µg/mL and 0.0836 nM, the IC50 [8] was 0.631 nM and the IC50 [5] was 0.094 µg/mL.

B7: anti-human TIGIT human mouse chimeric monoclonal antibody 7103-01 (hFc) (antibody, V domains shown)
VH: QVQLQQPGAELVKPGASVKLSCKASGYTFISYNIYWVKQRPGQGLEWIGGVNPSNGNTNFNENFKSKATLTVDKSSSTAYMQLSSLTSDDSAVYFCTRGNYYGYEFAYWGQGTLVTVSA
VL: DIVMTQSHKFMSTSVGDRVSITCKASQHVSTAVAWYQQKPGQSPKLLIYSPSYRYTGVPDRFTGSGSGTDFTFTISSVQAEDLAVYYCQQHYSTPWTFGGGTKLEIK
notes: also called 7301-01 (hFc)
For B7, the IC50 [3] was 4.03 nM, the Kd [9] was 1.73 nM and the koff [9] was 0.000951 s⁻¹. It also gave a kon [9] of 549000 M⁻¹ s⁻¹, an EC50 [4] of 1.08 nM and an EC50 [10] of 0.499 nM. For the same binder, the Kd [7] was 0.574 nM, the koff [7] was 0.000405 s⁻¹ and the kon [7] was 706000 M⁻¹ s⁻¹.

B8: anti-human TIGIT human mouse chimeric monoclonal antibody 7103-03 (hFc) (antibody, V domains shown)
VH: EVQLQQSGPELVKPGASVKISCKTSGYTFTEYTMHWVKQSHGKSLEWIGGINPNNGGTSYNQKFKGKATLTVDKSSSTAYMELRSLTSEDSAVYYCARGAYYRYDFDYWGQGTTLTVSS
VL: B7 VL with H28D, S30R, A34V, P51A
Work on B8 yielded an IC50 [3] of 1.46 nM, an EC50 [4] of 0.596 nM and an EC50 [10] of 0.38 nM. For the same binder, the Kd [7] was 1.14 nM, the koff [7] was 0.00091 s⁻¹ and the kon [7] was 801000 M⁻¹ s⁻¹.

B9: anti-human TIGIT human mouse chimeric monoclonal antibody 7103-04 (hFc) (antibody, V domains shown)
VH: VQLQESGAELVKPGASVKLSCRASGYTFTDYFVYWVKQRPGQGLEWIGGINPSNGGATFNEKFKNKATLTVDTSSSTAYMQLSSLTSEDSAIYYCTRGNFYGYEFAYWGQGTLVTVSA
VL: B7 VL with M11I, A34V, S93I
In the case of B9, the IC50 [3] is reported as 3.3 nM, the EC50 [4] is reported as 0.867 nM and the EC50 [10] is reported as 0.554 nM. It also gave a Kd [7] of 0.661 nM, a koff [7] of 0.000558 s⁻¹ and a kon [7] of 845000 M⁻¹ s⁻¹.

B10: anti-human TIGIT human mouse chimeric monoclonal antibody 7103-06 (hFc) (antibody, V domains shown)
VH: B2 VH with V2E, V4L, Q43K, H57Y, F59Y, Q76K, N84S, Q111H
VL: B2 VL with S26N, S28T, V104L
For B10, the IC50 [3] was 2.03 nM, the EC50 [4] was 0.873 nM and the EC50 [10] was 0.554 nM. For the same binder, the Kd [7] was 1.29 nM, the koff [7] was 0.00139 s⁻¹ and the kon [7] was 1.07e+06 M⁻¹ s⁻¹.
